B1: S-tagged human asporin D13: mature S-tagged human asporin D13 synthesized cell-free from pET29b-ASP13, lysines biotinylated (protein)
chain: DMEDTDDDDDDDDDDDDDEDNSLFPTREPRSHFFPFDLFPMCPFGCQCYSRVVHCSDLGLTSVPTNIPFDTRMLDLQNNKIKEIKENDFKGLTSLYGLILNNNKLTKIHPKAFLTTKKLRRLYLSHNQLSEIPLNLPKSLAELRIHENKVKKIQKDTFKGMNALHVLEMSANPLDNNGIEPGAFEGVTVFHIRIAEAKLTSVPKGLPPTLLELHLDYNKISTVELEDFKRYKELQRLGLGNNKITDIENGSLANIPRVREIHLENNKLKKIPSGLPELKYLQIIFLHSNSIARVGVNDFCPTVPKMKKSLYSAISLFNNPVKYWEMQPATFRCVLSRMSVQLGNFGM
modifications: left off: small tags and cut ends
notes: mature S-tagged human asporin D13 synthesized cell-free from pET29b-ASP13, lysines biotinylated
B2: S-tagged human asporin D14: mature S-tagged human asporin D14 synthesized cell-free from pET29b-ASP14, lysines biotinylated (protein)
chain: DMEDTDDDDDDDDDDDDDDEDNSLFPTREPRSHFFPFDLFPMCPFGCQCYSRVVHCSDLGLTSVPTNIPFDTRMLDLQNNKIKEIKENDFKGLTSLYGLILNNNKLTKIHPKAFLTTKKLRRLYLSHNQLSEIPLNLPKSLAELRIHENKVKKIQKDTFKGMNALHVLEMSANPLDNNGIEPGAFEGVTVFHIRIAEAKLTSVPKGLPPTLLELHLDYNKISTVELEDFKRYKELQRLGLGNNKITDIENGSLANIPRVREIHLENNKLKKIPSGLPELKYLQIIFLHSNSIARVGVNDFCPTVPKMKKSLYSAISLFNNPVKYWEMQPATFRCVLSRMSVQLGNFGM
modifications: left off: small tags and cut ends
notes: mature S-tagged human asporin D14 synthesized cell-free from pET29b-ASP14, lysines biotinylated
B3: biglycan: SLRP family proteoglycan used as the negative control for collagen binding (protein, UniProt P21810 38-368, looked up)
Biglycan: DEEASGADTSGVLDPDSVTPTYSAMCPFGCHCHLRVVQCSDLGLKSVPKEISPDTTLLDLQNNDISELRKDDFKGLQHLYALVLVNNKISKIHEKAFSPLRKLQKLYISKNHLVEIPPNLPSSLVELRIHDNRIRKVPKGVFSGLRNMNCIEMGGNPLENSGFEPGAFDGLKLNYLRISEAKLTGIPKDLPETLNELHLDHNKIQAIELEDLLRYSKLYRLGLGHNQIRMIENGSLSFLPTLRELHLDNNKLARVPSGLPDLKLLQVVYLHSNNITKVGVNDFCPMGFGVKRAYYNGISLFNNPVPYWEVQPATFRCVTDRLAIQFGNYKK
B4: D16: asporin having D-repeat number of 16, transiently expressed (protein)
chain: AKPFFSPSHIALKNMMLKDMEDTDDDDDDDDDDDDDDEDNSLFPTREPRSHFFPFDLFPMCPFGCQCYSRVVHCSDLGLTSVPTNIPFDTRMLDLQNNKIKEIKENDFKGLTSLYGLILNNNKLTKIHPKAFLTTKKLRRLYLSHNQLSEIPLNLPKSLAELRIHENKVKKIQKDTFKGMNALHVLEMSANPLDNNGIEPGAFEGVTVFHIRIAEAKLTSVPKGLPPTLLELHLDYNKISTVELEDFKRYKELQRLGLGNNKITDIENGSLANIPRVREIHLENNKLKKIPSGLPELKYLQIIFLHSNSIARVGVNDFCPTVPKMKKSLYSAISLFNNPVKYWEMQPATFRCVLSRMSVQLGNFGM
B5: D17: asporin having D-repeat number of 17, transiently expressed (protein)
chain: B4 chain

Columns and labels:
type I collagen = target: T1, type I collagen (Homo sapiens, UniProt P02452+P08123); test: Binding assay of asporin and collagen (type I); details: 37° C., 5 hours, precipitate, Western blotting
T1 construct: purchased Nitta Gelatin Inc. 1-C
Protocol: (§1) A binding assay of asporin and collagen was performed by the method described below. As a collagen an acid-soluble type II collagen solution (KOKEN, 3 mg/ml) and an acid-soluble type I collagen solution (1-C: Nitta Gelatin Inc., 3 mg/ml) were used. A reaction mixture comprising 5 μl of an acid-soluble collagen solution (3 mg/ml), 5 μl of an S-tagged human asporin reaction mixture prepared by the method described in Example, and 90 μl of PBS, was prepared, and incubated at 37° C. for 5 hours. This reaction mixture was centrifuged (10,000 rpm, 5 minutes, 4° C.), after which the precipitate was washed with PBS three times. The washed precipitate was dissolved in 20 μl of a sample buffer (comprising 1 μl of 2-mercaptoethanol), after which SDS-PAGE was performed, and Western blotting was performed using streptavidin-HRP. As a result, S-tagged human asporin D13 and D14 bound to both type II collagen and type I collagen (FIG. 21a).

TGF-β1 = TGF-β1 (Homo sapiens, UniProt P01137); test: Binding assay of asporin and TGF-β by pull-down assay method; details: S-Protein agarose precipitate, Western blotting
Protocol: With the pET29b-ASP13 and pET29b-ASP14 thus prepared as the templates, S-tagged human asporin D13 and D14 were prepared by performing a reaction in the presence of Transcend™ Biotin-Lysyl-tRNA using TNT Quick Coupled Transcription/Translation Systems (Promega). A reaction mixture comprising S-tagged human asporin D13 or D14 (10 μl) and TGF-β1 (0.1 μg) were mixed in buffer A (50 mM Tris (pH 7.5), 150 mM NaCl, 1% Triton X-100, complete protease inhibitor cocktail tablets (Roche)) at 4° C. for 1 hour, S-Protein agarose (Novagen, 12.5 μl) was added, and the mixture was further incubated at room temperature for 30 minutes. The precipitated resin was washed with buffer A five times, after which SDS-PAGE was performed under reducing conditions. S-tagged human asporin in the precipitate was detected by Western blotting using streptavidin-HRP (R&D Systems), and TGF-β1 was detected by Western blotting using biotinylated anti-TGF-β1 antibody (Genzyme). As a result of an examination of the binding of human asporin and TGF-β by the method described above, a band of TGF-β1 was detected in the precipitate comprising S-tagged human asporin D13 or D14 (FIG. 17).
Using the recombinant mouse asporin purified by the method described in Example 31, its capability of binding with TGF-β1 was examined by the method described in Example 22 (pull-down assay method); as a result, it was confirmed that TGF-β1 was detected in the precipitate of purified mouse asporin (FIG. 26).

type II collagen = test: Binding assay of asporin and collagen (type II); details: 37° C., 5 hours, precipitate, Western blotting
Protocol: as §1

[1] = system: ATDC5 cell lines that transiently express human asporin; test: TGF-β1-stimulated aggrecan and type II collagen gene expression in ATDC5 transiently expressing human asporin; format: cell-based, mouse; details: transient expression
Protocol: ATDC5 cells were inoculated to a 12-well plate at 0.5×10^5 cells/well, and cultured in a medium 1-2 (DMEM/F12 medium containing 5% FBS, ITS (Sigma), penicillin (100 U/ml) and streptomycin (100 μg/ml)). 24 hours later, pcDNA3.1-ASP13 or pcDNA3.1-ASP14 were introduced using FuGENE-6 (Roche), and the cells were cultured for 24 hours. Next, the medium was exchanged with a medium 1-2 containing 0.2% FBS, and the cells were cultured for 12 hours, after which TGF-β1 (10 ng/ml) was added, and the cells were further cultured for 18 hours, after which total RNA extraction, purification, cDNA synthesis, and real-time PCR were performed in the same manner as Example 18. As a result, the elevation of the TGF-β1-stimulated expression levels of the aggrecan and type II collagen genes was suppressed in the ATDC5 cells allowed to transiently express human asporin D13 or D14 compared to mock (FIG. 14).
First, the expression level of the aggrecan gene elevated by TGF-β1 stimulation in mock is written as (AM), and the expression level of the type II collagen gene at the same time is written as (CM). Next, the TGF-β1-stimulated aggrecan gene expression level suppressed by the forced expression of asporin D13 is written as (A13), and the type II collagen gene expression level at the same time is written as (C13). […] Thus, the suppression rate of the TGF-β1-stimulated aggrecan gene expression in the asporin D13 expressing line can be expressed as (A13)/(AM), and the suppression rate of the type II collagen gene expression as (C13)/(CM). Likewise, the suppression rate of the TGF-β1-stimulated aggrecan gene expression in the asporin D14 expressing line can be expressed as (A14)/(AM), and the suppression rate of the type II collagen gene expression as (C14)/(CM). Furthermore, by making a correction by dividing these values by the human asporin mRNA content obtained with TGF-β1 stimulation, the suppression rate of the aggrecan and type II collagen gene expression per human asporin mRNA content were calculated. […]

Chain of type II collagen (P02458 182-1241 limits assumed): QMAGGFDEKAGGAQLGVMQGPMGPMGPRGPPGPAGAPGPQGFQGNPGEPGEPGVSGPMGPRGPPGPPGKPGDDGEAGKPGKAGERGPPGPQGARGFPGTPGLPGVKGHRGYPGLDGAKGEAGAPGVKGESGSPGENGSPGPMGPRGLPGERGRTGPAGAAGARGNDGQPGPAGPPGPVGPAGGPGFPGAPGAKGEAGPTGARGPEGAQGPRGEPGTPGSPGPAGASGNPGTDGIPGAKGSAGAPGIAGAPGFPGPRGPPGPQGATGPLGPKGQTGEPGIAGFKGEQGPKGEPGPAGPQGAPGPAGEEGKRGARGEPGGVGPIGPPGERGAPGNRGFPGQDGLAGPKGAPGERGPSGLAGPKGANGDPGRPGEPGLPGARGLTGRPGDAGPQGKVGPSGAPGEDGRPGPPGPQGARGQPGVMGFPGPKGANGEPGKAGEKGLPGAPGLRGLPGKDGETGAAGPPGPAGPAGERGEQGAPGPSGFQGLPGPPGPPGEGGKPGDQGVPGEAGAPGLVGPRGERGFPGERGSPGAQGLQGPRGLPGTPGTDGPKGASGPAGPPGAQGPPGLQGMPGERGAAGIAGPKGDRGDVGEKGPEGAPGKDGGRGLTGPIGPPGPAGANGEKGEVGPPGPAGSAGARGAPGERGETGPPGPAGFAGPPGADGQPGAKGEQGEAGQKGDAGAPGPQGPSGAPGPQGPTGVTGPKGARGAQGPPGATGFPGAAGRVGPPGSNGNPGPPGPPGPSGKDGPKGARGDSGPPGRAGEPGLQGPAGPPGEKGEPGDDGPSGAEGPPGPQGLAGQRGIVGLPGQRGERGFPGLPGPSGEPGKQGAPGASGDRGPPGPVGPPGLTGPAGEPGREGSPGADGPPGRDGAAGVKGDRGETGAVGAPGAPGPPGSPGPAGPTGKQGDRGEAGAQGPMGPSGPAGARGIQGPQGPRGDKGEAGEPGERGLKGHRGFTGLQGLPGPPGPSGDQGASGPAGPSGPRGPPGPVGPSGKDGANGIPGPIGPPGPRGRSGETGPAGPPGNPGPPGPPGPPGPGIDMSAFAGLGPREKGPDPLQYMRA
T1 sequence (P02452 162-1218 limits assumed): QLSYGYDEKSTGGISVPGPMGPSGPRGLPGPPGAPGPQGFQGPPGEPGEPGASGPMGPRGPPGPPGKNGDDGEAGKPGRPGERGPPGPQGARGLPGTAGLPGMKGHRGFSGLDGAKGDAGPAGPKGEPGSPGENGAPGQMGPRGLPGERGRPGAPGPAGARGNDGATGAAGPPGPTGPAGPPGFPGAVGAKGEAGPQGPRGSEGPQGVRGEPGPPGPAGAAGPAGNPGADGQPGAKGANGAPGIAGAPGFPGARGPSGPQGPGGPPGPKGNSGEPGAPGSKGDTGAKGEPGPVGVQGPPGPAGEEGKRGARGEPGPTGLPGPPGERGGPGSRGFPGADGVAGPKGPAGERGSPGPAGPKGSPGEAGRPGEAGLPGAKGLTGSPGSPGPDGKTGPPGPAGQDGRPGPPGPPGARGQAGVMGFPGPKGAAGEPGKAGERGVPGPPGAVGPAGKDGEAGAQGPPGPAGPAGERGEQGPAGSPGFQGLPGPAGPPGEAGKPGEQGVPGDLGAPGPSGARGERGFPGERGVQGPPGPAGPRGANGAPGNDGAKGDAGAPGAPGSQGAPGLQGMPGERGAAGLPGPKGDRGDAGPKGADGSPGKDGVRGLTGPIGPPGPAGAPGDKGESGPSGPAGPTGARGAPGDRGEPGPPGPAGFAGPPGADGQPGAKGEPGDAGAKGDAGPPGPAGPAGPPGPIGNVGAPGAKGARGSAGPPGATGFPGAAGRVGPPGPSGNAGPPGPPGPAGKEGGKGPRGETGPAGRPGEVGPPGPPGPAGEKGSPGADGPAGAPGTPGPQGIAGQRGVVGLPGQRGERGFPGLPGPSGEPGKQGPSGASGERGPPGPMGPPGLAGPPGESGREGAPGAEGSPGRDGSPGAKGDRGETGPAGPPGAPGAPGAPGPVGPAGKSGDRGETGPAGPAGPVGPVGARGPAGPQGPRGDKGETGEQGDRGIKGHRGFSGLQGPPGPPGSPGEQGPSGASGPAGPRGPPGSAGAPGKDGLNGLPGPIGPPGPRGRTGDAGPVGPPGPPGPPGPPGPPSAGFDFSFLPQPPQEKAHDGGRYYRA
T1 sequence (P08123 80-1119 limits assumed): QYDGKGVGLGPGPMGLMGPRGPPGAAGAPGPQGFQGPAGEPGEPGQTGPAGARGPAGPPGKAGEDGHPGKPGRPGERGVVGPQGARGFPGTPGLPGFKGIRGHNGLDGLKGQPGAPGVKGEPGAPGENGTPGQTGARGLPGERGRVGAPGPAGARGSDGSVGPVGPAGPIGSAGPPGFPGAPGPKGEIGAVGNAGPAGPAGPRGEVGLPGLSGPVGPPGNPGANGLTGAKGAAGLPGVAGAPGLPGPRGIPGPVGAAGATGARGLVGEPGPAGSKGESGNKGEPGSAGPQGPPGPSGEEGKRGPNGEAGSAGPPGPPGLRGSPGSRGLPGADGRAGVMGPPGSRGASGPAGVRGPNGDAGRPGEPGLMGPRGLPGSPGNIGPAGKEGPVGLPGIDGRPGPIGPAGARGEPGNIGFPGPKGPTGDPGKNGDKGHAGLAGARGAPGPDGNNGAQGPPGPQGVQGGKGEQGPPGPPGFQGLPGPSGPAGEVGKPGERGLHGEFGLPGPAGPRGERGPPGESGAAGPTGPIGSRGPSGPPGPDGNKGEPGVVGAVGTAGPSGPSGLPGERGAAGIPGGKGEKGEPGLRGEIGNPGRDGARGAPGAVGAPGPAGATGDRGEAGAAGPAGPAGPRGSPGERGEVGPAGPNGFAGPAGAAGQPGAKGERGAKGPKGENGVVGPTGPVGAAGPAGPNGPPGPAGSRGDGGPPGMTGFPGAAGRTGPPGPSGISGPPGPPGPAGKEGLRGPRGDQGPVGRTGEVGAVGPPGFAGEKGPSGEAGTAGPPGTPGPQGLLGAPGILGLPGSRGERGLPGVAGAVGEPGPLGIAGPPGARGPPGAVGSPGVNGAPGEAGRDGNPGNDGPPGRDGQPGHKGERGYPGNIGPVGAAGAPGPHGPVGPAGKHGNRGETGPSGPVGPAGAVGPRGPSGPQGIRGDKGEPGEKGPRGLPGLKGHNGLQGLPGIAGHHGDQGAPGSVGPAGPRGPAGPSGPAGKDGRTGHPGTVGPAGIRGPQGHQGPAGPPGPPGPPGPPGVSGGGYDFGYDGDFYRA
Chain of TGF-β1 (P01137 279-390 limits assumed, species assumed): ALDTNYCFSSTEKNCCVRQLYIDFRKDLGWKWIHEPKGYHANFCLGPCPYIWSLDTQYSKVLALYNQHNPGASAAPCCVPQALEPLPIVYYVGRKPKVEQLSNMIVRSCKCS

Row | Molecule | binding to type I collagen (type I collagen) | binding to TGF-β1 (pull-down) (TGF-β1) | binding to type II collagen (type II collagen) | suppressive action on the TGF-β1-stimulated expression of COL2A1 compared with D14 [1]
1 | B1 | bound | bound to TGF-β1 in vitro | bound | 
2 | B2 | bound | bound to TGF-β1 in vitro | bound | 
3 | B3 | did not bind |  | did not bind | 
4 | B4 |  |  |  | significantly weaker than that of D14
5 | B5 |  |  |  | significantly weaker than that of D14

Reference: patent publication US20090075921A1, “Bone/joint disease sensitivity gene and use thereof” (Riken, priority 2004, published 2009)
